Patent US20060121032A1

What follows are substances tested against extracellular region of human F158 FcγRIIIa with C-terminal 6×His-tag and GST-tag (human) (UniProt P08637) (assay: SPR, receptor on chip).
Chain of extracellular region of human F158 FcγRIIIa with C-terminal 6×His-tag and GST-tag (human) (P08637 17-208): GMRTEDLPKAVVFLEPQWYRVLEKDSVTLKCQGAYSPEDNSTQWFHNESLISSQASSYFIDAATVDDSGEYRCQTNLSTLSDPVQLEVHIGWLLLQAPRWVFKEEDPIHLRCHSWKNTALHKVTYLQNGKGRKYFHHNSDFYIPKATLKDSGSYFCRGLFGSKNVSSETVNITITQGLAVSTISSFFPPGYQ

Row | Substance | Kd [nM]
1 | alemtuzumab S298A (antibody) | 285
2 | alemtuzumab S298A/E333A/K334A (antibody) | 156
3 | alemtuzumab V264I (antibody) | 550
4 | WT alemtuzumab (antibody) | 730

More lines, now with the values ahead:

Row | Kd [nM] | Substance
5 | 72 | alemtuzumab I332E (antibody)
6 | 52 | alemtuzumab V264I/I332E (antibody)

Each substance was assayed against FcγRIIIa on human PBMCs expressing heterozygous V158/F158 FcγRIIIa (human) (UniProt P08637) (assay: cell-based or functional assay).
Chain of FcγRIIIa on human PBMCs expressing heterozygous V158/F158 FcγRIIIa (human) (P08637 17-254): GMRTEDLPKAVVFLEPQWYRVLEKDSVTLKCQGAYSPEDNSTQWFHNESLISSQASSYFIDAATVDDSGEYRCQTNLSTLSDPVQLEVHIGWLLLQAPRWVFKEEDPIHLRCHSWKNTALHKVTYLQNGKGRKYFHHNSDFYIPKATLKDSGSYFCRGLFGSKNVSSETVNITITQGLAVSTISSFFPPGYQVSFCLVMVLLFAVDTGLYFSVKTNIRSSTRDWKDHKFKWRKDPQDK

Row | ADCC EC50 (ng/ml), DoHH-2 target cells, human PBMCs [ng/mL] | ADCC log(EC50), DoHH-2 target cells, human PBMCs | Substance
7 | 4 | 0.6 log(ng/ml) | alemtuzumab V264I/I332E (antibody)
8 | 3 | 0.49 log(ng/ml) | alemtuzumab S239D/I332E (antibody)
